B1: full-length recombinant wild-type calreticulin (natural protein, human, UniProt P27797 18-417, looked up)
chain: EPAVYFKEQFLDGDGWTSRWIESKHKSDFGKFVLSSGKFYGDEEKDKGLQTSQDARFYALSASFEPFSNKGQTLVVQFTVKHEQNIDCGGGYVKLFPNSLDQTDMHGDSEYNIMFGPDICGPGTKKVHVIFNYKGKNVLINKDIRCKDDEFTHLYTLIVRPDNTYEVKIDNSQVESGSLEDDWDFLPPKKIKDPDASKPEDWDERAKIDDPTDSKPEDWDKPEHIPDPDAKKPEDWDEEMDGEWEPPVIQNPEYKGEWKPRQIDNPDYKGTWIHPEIDNPEYSPDPSIYAYDNFGVLGLDLWQVKSGTIFDNFLITNDEAYAEEFGNETWGVTKAAEKQMKDKQDEEQRLKEEEEDKKRKEEEEAEDKEDDEDKDEDEEDEEDKEEDEEEDVPGQAKDEL
notes: calreticulin, human, Prot id P27797; called full-length recombinant wt CRT; Oligomers formed after heat treatment (57 °C 10 min, with or without 42 °C for 3 days); also called CRT; wt CRT; source: recombinant, produced using standard protocols and purified as previously described by Čiplys and colleagues [39]
B2: calreticulin purified from human placenta (natural protein, UniProt P27797 18-417, looked up)
chain: B1 chain
notes: calreticulin, human, Prot id P27797, purified from placenta; Heat-treated (57 °C 10 min) before native PAGE; also called CRT; human CRT purified from human placenta; source: purified from human placenta

Molecular target: the molecule itself
Assay: native gel or EMSA; native PAGE, 4-20% Tris-glycine gel, native running buffer pH 7.5, Coomassie staining; samples in native sample buffer heated 10 min at 57 °C (recombinant CRT with or without 3 days at 42 °C)

Protein	binding result
B1	binds
B2	binds

Reference: publication PMC8395503, “Epitope Mapping of Monoclonal Antibodies to Calreticulin Reveals That Charged Amino Acids Are Essential for Antibody Binding” (Antibodies, 2021)
